Source: the supplement of paper PMC9732359
± gives the uncertainty stated by the source.

Test: protein stability index of a GFP-peptide fusion (yeast GPS) (PSI 1-4); higher = more stable; sorted into four equal gates, so the index is relative within each strain
Method in brief: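 Yeast carrying a pooled library were grown to mid-log phase in leucine-free medium. Each library plasmid expresses Cherry and has a tiled 17-residue yeast protein peptide fused downstream of GFP. Cells were sorted into four equal gates by GFP/Cherry ratio, and plasmids from each gate were PCR-amplified, Illumina-sequenced and assigned to strains by barcode. Summing, across gates, the read frequency times the gate number gave each peptide's protein stability index.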

Sequence | protein stability index (doa10∆) | protein stability index (pdr5∆) | protein stability index (san1∆) | protein stability index (ubr1∆)
YRKTEGIFEKAKAKAVT [YMR153W/NUP53] | 2.56 ± 0.09 | 2.54 ± 0.12 | 2.65 ± 0.13 | 2.48 ± 0.075
HQSELIIKQTVHPIPDV [YMR129W/POM152] | 2.74 ± 0.066 | 2.86 ± 0.055 | 2.55 ± 0.071 | 2.27 ± 0.061
EDTNTKPLFDFGKTGDQ [YOR098C/NUP1] | 1.86 ± 0.25 |  |  | 
PNNETSVLSSKPGSKPE [SIR3] | 3.12 ± 0.11 | 3.04 ± 0.12 | 3.06 ± 0.082 | 2.96 ± 0.064
LTSVTRHGFNRSNTGAL [RPO21] | 2.48 ± 0.067 | 2.39 ± 0.063 | 2.75 ± 0.093 | 2.51 ± 0.058
VYSFDPVGSYEREQCRA [PRE7] | 3.62 ± 0.23 | 3.47 ± 0.23 | 3.27 ± 0.13 | 3.29 ± 0.091
LVDDENEPSQSLISTRN [BRN1] | 3.22 ± 0.058 | 3.4 ± 0.064 | 3.19 ± 0.047 | 3.15 ± 0.057
HMDYDGNIVKEFENKFQ [YMR129W/POM152] | 3.28 ± 0.069 | 3.33 ± 0.082 | 3.36 ± 0.049 | 3.22 ± 0.055
ERDEQKRAEKKAKERLQ [SNF2] | 3.29 ± 0.12 | 3.45 ± 0.16 | 2.98 ± 0.13 | 3.4 ± 0.12
GAHLLEFQPSGNVTELY [PRE5] | 2.54 ± 0.12 | 2.99 ± 0.076 | 2.92 ± 0.12 | 3.02 ± 0.11
NENSNCLLSIPKSTKGK [YML103C/NUP188] | 2.04 ± 0.05 | 1.99 ± 0.044 | 2.61 ± 0.05 | 2.35 ± 0.043
RLSNEMHALKNRSEQNG [RGR1] | 3.32 ± 0.12 | 3.25 ± 0.17 | 3.09 ± 0.16 | 2.9 ± 0.12
VLGFLQLFHNLISIHSR [YJL039C/NUP192] | 2.67 ± 0.068 | 2.89 ± 0.059 | 2.85 ± 0.056 | 2.98 ± 0.048
SRPDILSKIKFPESIWK [YCG1] | 2.77 ± 0.049 | 2.04 ± 0.037 | 1.92 ± 0.058 | 2.06 ± 0.029
KHGAVHLSTYLKVYKVG [RPL21A] | 1.76 ± 0.07 | 1.69 ± 0.077 | 1.27 ± 0.2 | 3.02 ± 0.065
SYNWGAKAKRRHTTGTG [RPL37A] | 3.37 ± 0.097 | 3.15 ± 0.055 | 3.13 ± 0.078 | 3.34 ± 0.043
KSIINSQRPGARILARS [ITC1] |  | 2.18 ± 0.16 | 2.45 ± 0.22 | 2.63 ± 0.11
ERTKNAQFIVISLRNNM [SMC4] | 2.72 ± 0.13 | 1.3 ± 0.063 | 1.33 ± 0.093 | 1.73 ± 0.08
VDKELLEPGCSVLLHHK [RPT2] | 2.95 ± 0.16 | 2.8 ± 0.095 | 2.51 ± 0.17 | 2.66 ± 0.12
FLNDVIPTTKNLRLLVE [DLS1] | 3.28 ± 0.091 | 3.16 ± 0.11 | 2.88 ± 0.081 | 3.47 ± 0.087
PEMIKRSLLLSRVRADD [RRP43] | 2.87 ± 0.2 | 3.63 ± 0.17 |  | 2.92 ± 0.16
YIFCISRTIGMVVNGPI [SCL1] | 1.45 ± 0.038 | 1.54 ± 0.047 | 1.58 ± 0.082 | 1.56 ± 0.034
FVKKTSEEIDSLNEDVE [SMC2] | 2.97 ± 0.17 | 3.2 ± 0.19 |  | 
VKKPHRYKPGTVALREI [HHT1] | 3.15 ± 0.14 | 3.17 ± 0.1 | 2.75 ± 0.094 | 3.25 ± 0.12
VDSRTKIRMLTQAAEFL [IRR1] | 2.47 ± 0.11 | 2.96 ± 0.084 | 1.78 ± 0.11 | 2.81 ± 0.079
QDNKQLYQIWIVMVWLK [YDL116W/NUP84] | 2.62 ± 0.058 | 2.62 ± 0.049 | 3.02 ± 0.065 | 2.78 ± 0.031

Sequence | protein stability index (doa10∆) | protein stability index (pdr5∆) | protein stability index (san1∆) | protein stability index (ubr1∆)
ATNRPDTLDPALLRPGR [RPT4] | 2.91 ± 0.12 | 3.18 ± 0.14 | 2.89 ± 0.1 | 3.1 ± 0.14
EVAVPDRVAKVLTYPEK [RPO31] | 2.97 ± 0.075 | 3.06 ± 0.1 | 2.88 ± 0.078 | 3.23 ± 0.078
FENCYLEGNDIHALAAK [FAS1] | 2.83 ± 0.053 | 3.06 ± 0.049 | 2.88 ± 0.044 | 2.69 ± 0.041
VSEITKLKFFPSGEALI [RPN14] | 2.55 ± 0.089 | 2.76 ± 0.069 | 2.95 ± 0.064 | 3.18 ± 0.059
KPQRTNTLRMKHGTYDK [RPB2] | 2.74 ± 0.081 | 2.85 ± 0.061 | 2.84 ± 0.062 | 2.88 ± 0.044
RKDTVSREVLRYEEFAD [RPC40] | 3.38 ± 0.11 | 3.59 ± 0.15 | 3.32 ± 0.082 | 3.3 ± 0.11
MAMNITPRLYTDRSRDF [RPB2] | 2.93 ± 0.089 | 3 ± 0.087 | 2.96 ± 0.096 | 3.2 ± 0.087
ASTINGASIIQVIFEIF [YML103C/NUP188] | 1.43 ± 0.059 | 1.9 ± 0.054 | 1.95 ± 0.087 | 1.94 ± 0.046
TGNIKHEDLVNSIESKN [COR1] | 3.13 ± 0.093 | 2.99 ± 0.11 | 3.2 ± 0.075 | 2.96 ± 0.087
ENGIEVELLDSNDRVNP [ITC1] | 3.56 ± 0.078 | 3.2 ± 0.11 | 3.29 ± 0.062 | 3.19 ± 0.061
TEGPSDKKLNLNLPLQF [SNF12] | 3.12 ± 0.1 | 3.31 ± 0.093 | 3.31 ± 0.091 | 2.87 ± 0.11
TYASVTGLFTLERTDLK [RPN7] | 3.43 ± 0.23 |  |  | 2.62 ± 0.21
KIALGSPIVNVLEDVYR [RRI2] | 2.17 ± 0.15 | 2.96 ± 0.15 | 2.31 ± 0.15 | 2.77 ± 0.098
QTKSNGTAGGNTFGSSS [YJL041W/NSP1] | 3.28 ± 0.063 | 2.84 ± 0.064 | 2.96 ± 0.055 | 3.22 ± 0.053
RVIVAGTLDINPDDDYG [FAS1] | 2.38 ± 0.069 | 2.87 ± 0.073 | 2.85 ± 0.06 | 2.51 ± 0.058
REKLAEVYKAEKDAVSV [RPS24A] | 3.27 ± 0.11 | 3.17 ± 0.069 | 3.45 ± 0.054 | 3.33 ± 0.11
MRLIKRVRAESLHSNSF [YJL039C/NUP192] | 2.12 ± 0.11 | 1.64 ± 0.14 |  | 2.44 ± 0.12
SPSEFVDVAIPCNNRGK [RPS0A] | 1.74 ± 0.096 | 1.97 ± 0.065 | 1.61 ± 0.093 | 1.54 ± 0.096
GRTPNISNGTINIQKKL [SIR4] | 2.37 ± 0.058 | 2.64 ± 0.048 | 2.58 ± 0.063 | 2.16 ± 0.041
ATPPLKRFKDMEYLSGG [SMC1] | 2.93 ± 0.13 | 2.89 ± 0.09 | 2.99 ± 0.047 | 3.01 ± 0.063
LYQIDYLGTKVELPYGA [PRE1] | 1.72 ± 0.089 | 1.81 ± 0.079 | 1.62 ± 0.099 | 2.23 ± 0.073
PVSPLDIYSDEASAQKK [RPS2] | 2.74 ± 0.095 | 2.93 ± 0.093 | 3.02 ± 0.075 | 3.02 ± 0.06
GRVKALEQFMERNNIGE [YDL116W/NUP84] | 2.78 ± 0.12 | 2.68 ± 0.08 | 2.75 ± 0.15 | 3.07 ± 0.1
LSAVAQAESMKFKLLNG [RPS3] | 3.06 ± 0.1 | 3.21 ± 0.1 | 2.83 ± 0.12 | 3.09 ± 0.079
ETNGYDPFSIYGFSNKE [SNF5] | 1.64 ± 0.047 | 1.51 ± 0.075 | 2.12 ± 0.083 | 2.03 ± 0.063
ERDTFSDFTFPEYYSTA [DIS3] | 1.66 ± 0.082 | 1.73 ± 0.082 | 2.15 ± 0.17 | 1.64 ± 0.14

Sequence | protein stability index (doa10∆) | protein stability index (pdr5∆) | protein stability index (san1∆) | protein stability index (ubr1∆)
RSPRVVTNALDNIDEKV [NUT1] | 2.92 ± 0.056 | 2.79 ± 0.054 | 2.77 ± 0.058 | 3.03 ± 0.058
EDDNTPAGHAGNPTNIS [YDL088C/ASM4] | 2.87 ± 0.076 | 2.88 ± 0.063 | 2.91 ± 0.052 | 3.1 ± 0.046
KYNVNISALTQTEIKDI [PRP8] | 2.6 ± 0.082 | 2.57 ± 0.083 | 2.18 ± 0.067 | 2.75 ± 0.051
NQFLKIKKKRKELFEKT [SMC1] | 3.06 ± 0.15 | 3 ± 0.11 | 2.96 ± 0.12 | 3.29 ± 0.16
VMLRLLLVVIFKKTLRS [SRB4] | 1.59 ± 0.068 | 1.56 ± 0.057 | 1.25 ± 0.098 | 1.23 ± 0.088
RYKPKSHLWEIDIPLDE [RPC37] | 2.81 ± 0.23 |  | 3.03 ± 0.22 | 
REKVRKLSQYVQEMALG [FAS2] | 2.86 ± 0.11 | 3.41 ± 0.11 | 3.15 ± 0.071 | 3.24 ± 0.067
LDGDRADKRGVLTGGYL [SMC3] | 2.93 ± 0.2 | 3.03 ± 0.23 |  | 3.07 ± 0.2
EEKPGLIITRKAFKNNS [SMC4] | 2.89 ± 0.086 | 2.88 ± 0.097 | 2.82 ± 0.064 | 2.94 ± 0.079
RNADELSSYQKKIIKCD [PRE5] | 2.25 ± 0.058 | 2.08 ± 0.084 | 2.58 ± 0.086 | 1.65 ± 0.049
VARTFWASKYGQEYPRI [BRR2] | 2.42 ± 0.15 | 2.38 ± 0.17 | 2.32 ± 0.17 | 3.06 ± 0.094
LHLANEHGLQITHTENY [BRN1] | 2.71 ± 0.13 | 2.79 ± 0.13 | 2.68 ± 0.15 | 2.76 ± 0.068
LQLASLQQKQRDLILKK [SMC3] | 2.49 ± 0.14 | 2.46 ± 0.16 | 3.1 ± 0.097 | 2.68 ± 0.13
ADILCPLLESFITFSLD [IRR1] | 2.63 ± 0.11 | 2.32 ± 0.081 | 2.17 ± 0.071 | 2.34 ± 0.064
PSENDVFYRMQQLRRAL [RPO31] | 2.03 ± 0.056 | 1.94 ± 0.046 | 2.5 ± 0.1 | 2.14 ± 0.067
EVTKGEKTYTKAPKIQR [RPS6A] | 3.17 ± 0.18 | 3.19 ± 0.14 |  | 3.53 ± 0.13
KSIENPTQTKGNDAKPA [YLR335W/NUP2] | 3.12 ± 0.075 | 3.24 ± 0.058 | 3.23 ± 0.046 | 2.94 ± 0.055
KSAENIIKMTIPYAAKL [RET1] | 2.27 ± 0.1 | 2.48 ± 0.11 | 2.89 ± 0.15 | 2.32 ± 0.09
FLKLVLSESPVDFEKFE [SIN4] | 2.58 ± 0.047 | 2.69 ± 0.069 | 2.66 ± 0.07 | 2.7 ± 0.067
QNTSNMNAGGLFGAKPQ [YGR119C/NUP57] | 2.08 ± 0.055 | 3.05 ± 0.063 | 3.34 ± 0.052 | 2.17 ± 0.076
IKHSKCRQEFLERVKAN [RPL21A] |  | 3.1 ± 0.23 |  | 
SLYTNTSRKALEEVSLK [RPL3] |  | 2.38 ± 0.13 | 2.33 ± 0.14 | 1.83 ± 0.19
QNVISLGSLTVEDYLSS [RPC82] | 2.83 ± 0.095 | 2.84 ± 0.078 | 2.06 ± 0.12 | 3 ± 0.074
EELRKHAQKRVSNASAR [SKI6] | 3.25 ± 0.23 | 3.22 ± 0.095 | 3.01 ± 0.11 | 2.89 ± 0.073
ENDLLQEFDSELSKEEK [SMC3] | 2.74 ± 0.3 |  |  | 3.03 ± 0.27
